Consider 1 molecule from publication PMC5444859.

One data set addresses CASV L-Cterm domain 2 (California Academy of Sciences virus …, UniProt J7HBG8 1794-1894). The experiment in a line: EMSA; 5 mM MgCl2; 5 pmol protein, 0.4 pmol RNA. Particulars: protein: recombinant; tags: N-terminal His-tag, removed by 3C protease; chain copies: 2; label: 32P in cap (alpha-32P-GTP); single strand. A general note: A gel shift assay detects complexes by their altered migration in electrophoresis.

The target in another data set is CASV L-Cterm (California Academy of Sciences virus …, UniProt J7HBG8 1721-2046). The experiment in a line: EMSA; 5 mM MgCl2; 5 pmol protein, 0.4 pmol RNA. Particulars: protein: recombinant; tags: N-terminal His-tag (pOPINF), removed by 3C protease; chain copies: 2; label: 32P in cap (alpha-32P-GTP); single strand.

As for AAAAAAAAAAAAAAAAAAAAAAAAAAAAAAAAAAAAAAAA (ssRNA, 5' cap added with capping enzymes (Cellscript)) [capped polyA 40mer RNA], the binding result with CASV L-Cterm domain 2 and with CASV L-Cterm was “no binding” each time.
